Measurements from article doi:10.1101/2021.02.03.429564.
Blank lines part the entries; values can stand above or below the molecule they belong to.

Tests used:
[1] = biological target: full-length recombinant human RAD51 protein, N-terminal 6xHis-tagged (human) (UniProt Q06609); experiment: MST
[2] = biological target: full-length recombinant human RAD51 protein, N-terminal 6xHis-tagged (human) (UniProt Q06609); experiment: static light scattering
[3] = biological target: full-length recombinant human RAD51 protein, N-terminal 6xHis-tagged (human) (UniProt Q06609)
[4] = biological target: T1, full-length recombinant human RAD51 protein, N-terminal 6xHis-tagged (human), Q06609; experiment: static light scattering; details: remark: other sources report otherwise
T1 chain: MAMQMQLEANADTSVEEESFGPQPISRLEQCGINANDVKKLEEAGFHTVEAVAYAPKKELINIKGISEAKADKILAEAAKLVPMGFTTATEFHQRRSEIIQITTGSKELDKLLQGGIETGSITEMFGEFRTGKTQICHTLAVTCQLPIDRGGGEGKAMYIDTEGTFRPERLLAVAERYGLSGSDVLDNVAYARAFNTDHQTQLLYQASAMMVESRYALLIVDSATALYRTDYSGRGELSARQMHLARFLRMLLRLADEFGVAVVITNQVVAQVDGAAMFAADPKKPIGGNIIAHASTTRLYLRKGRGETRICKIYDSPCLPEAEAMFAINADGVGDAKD

EC50 [1]: 60 to 80 nM
EC50 [2]: 4 to 5 µM
Molecule: BRC4 peptide (fourth BRC repeat of the BRCA2 protein)

IC50 of inhibition of homologous recombination in BxPC-3 cells [3]: 5 µM
Molecule: Myristoylated BRC4 (BRC4-ss-Myr) (peptide)

stoichiometry N [4]: 40 protomers
B1: full-length recombinant human RAD51 protein, N-terminal 6xHis-tagged, Q06609 1-339 (natural protein)
chain: T1 chain
